Experimental findings from patent US20090048158A1, “Insulin-Like Growth Factor Binding Protein-4 Compounds and Methods for Inhibiting Angiogenesis and Tumor Growth in Mammalian Cells” (priority 2005, published 2009) are described below.

The test system of the experiment is human brain endothelial cells (HBEC). As to the kind of experiment: Confocal microscopy internalization. Format: cell-based. The conditions noted are these: 100 nM AF647-CBP-4, 90 min (labelled IGFBP-4: unpublished observation). As for the experimental part:
HBEC (100000 cell/well in a 24-well format plate) were seeded on human fibronectin- (40 μg/ml) coated cover slips (Bellco Biotechnology) in 400 μl HBEC media and grown until reached 80% confluence. Cells were then washed twice with D-MEM and incubated in D-MEM for 30 min at 37 C. Then, D-MEM was removed and replaced with 250 μl/well of D-MEM containing 100 nM AF647-CBP-4 conjugate for 90 min and then washed with PBS. Cells were counterstained with the membrane dye DiOC5(3) for 15 seconds and then washed with PBS. Imaging of cells was performed using Zeiss LSM 410 (Carl Zeiss, Thornwood, N.Y., USA) inverted laser scanning microscope equipped with an Argon\Krypton ion laser and a Plan-Apochromat 63X, NA 1.4. Confocal images of two fluoroprobes were sequentially obtained using 488 and 647 nm excitation laser lines to detect DiOC5(3) (510-525 nm emission) and Alexa 647 fluorescence (670-810 nm emission).

B1: fluorescently-labeled IGFBP-4: fluorescently-labeled IGFBP-4, unpublished observations (conjugate, UniProt P22692 22-258, looked up)
Insulin-like growth …: DEAIHCPPCSEEKLARCRPPVGCEELVREPGCGCCATCALGLGMPCGVYTPRCGSGLRCYPPRGVEKPLHTLMHGQGVCMELAEIEAIQESLQPSDKDEGDHPNNSFSPCSAHDRRCLQKHFAKIRDRSTSGGKMKVNGAPREDARPVPQGSCQSELHRALERLAASQSRTHEDLYIIPIPNCDRNGNFHPKQCHPALDGQRGKCWCVDRKTGVKLPGGLEPKGELDCHQLADSFRE
modifications: fluorescent label
notes: fluorescently-labeled IGFBP-4, unpublished observations
Regarding B1, the “internalization into HBEC” value is on record as “internalized into HBEC”.
